Reference: US20230295297A1 (Alector, published 2023)

T1: human TREM2 on primary cells (human, UniProt Q9NZC2 19-230)
T1 construct: also called TREM2 on hDC; hMAC
T1 sequence: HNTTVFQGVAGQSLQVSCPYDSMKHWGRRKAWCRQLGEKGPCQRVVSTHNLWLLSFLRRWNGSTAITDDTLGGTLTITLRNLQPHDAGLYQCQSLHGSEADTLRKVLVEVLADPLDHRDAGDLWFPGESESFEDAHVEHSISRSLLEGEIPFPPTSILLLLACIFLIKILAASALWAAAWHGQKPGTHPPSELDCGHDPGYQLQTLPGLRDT

T2: recombinant human TREM2-DAP12 fusion protein expressed on cells (human)
T2 construct: also called HEKhT2; 293 cells expressing human TREM2; not shown: None of these limits is stated
T2 chain: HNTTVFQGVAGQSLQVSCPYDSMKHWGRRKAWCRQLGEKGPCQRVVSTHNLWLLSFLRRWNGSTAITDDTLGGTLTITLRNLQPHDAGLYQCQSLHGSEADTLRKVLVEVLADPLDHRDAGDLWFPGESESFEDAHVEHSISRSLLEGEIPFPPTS

T3: mouse TREM2 on cells (mouse, UniProt Q99NH8 19-227)
T3 construct: recombinant on BWZ cells (with DAP12) and native on mouse macrophages; also called BWZmT2; BWZ T2
T3 sequence: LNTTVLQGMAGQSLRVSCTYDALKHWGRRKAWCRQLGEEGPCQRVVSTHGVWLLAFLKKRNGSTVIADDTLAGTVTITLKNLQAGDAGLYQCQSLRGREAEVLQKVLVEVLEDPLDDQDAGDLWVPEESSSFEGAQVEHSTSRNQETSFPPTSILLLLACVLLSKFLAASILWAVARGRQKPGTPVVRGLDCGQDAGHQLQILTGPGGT

T4: E151A
T4 construct: also called hTREM2-Dap12 chimera with E151A; not shown: Transmembrane/cytoplasmic stretch and the Dap12 portion of the chimera
T4 chain: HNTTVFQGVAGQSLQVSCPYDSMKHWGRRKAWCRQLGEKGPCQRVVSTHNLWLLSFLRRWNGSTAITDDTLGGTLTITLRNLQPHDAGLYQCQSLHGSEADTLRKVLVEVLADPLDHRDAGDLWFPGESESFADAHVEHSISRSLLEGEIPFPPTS

T5: D152A
T5 construct: also called hTREM2-Dap12 chimera with D152A; not shown: Transmembrane/cytoplasmic stretch and the Dap12 portion of the chimera
T5 chain: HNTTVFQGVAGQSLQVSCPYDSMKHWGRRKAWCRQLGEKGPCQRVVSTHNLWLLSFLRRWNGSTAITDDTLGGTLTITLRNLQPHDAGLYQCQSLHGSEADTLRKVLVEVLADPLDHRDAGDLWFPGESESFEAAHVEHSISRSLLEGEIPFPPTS

T6: H114A
T6 construct: also called hTREM2-Dap12 chimera with H114A; not shown: Transmembrane/cytoplasmic stretch and the Dap12 portion of the chimera
T6 chain: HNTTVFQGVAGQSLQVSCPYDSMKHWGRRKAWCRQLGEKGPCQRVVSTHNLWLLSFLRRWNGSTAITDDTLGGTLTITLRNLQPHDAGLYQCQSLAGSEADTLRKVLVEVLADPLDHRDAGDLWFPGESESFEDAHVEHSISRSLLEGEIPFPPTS

T7: K42A
T7 construct: also called hTREM2-Dap12 chimera with K42A; not shown: Transmembrane/cytoplasmic stretch and the Dap12 portion of the chimera
T7 chain: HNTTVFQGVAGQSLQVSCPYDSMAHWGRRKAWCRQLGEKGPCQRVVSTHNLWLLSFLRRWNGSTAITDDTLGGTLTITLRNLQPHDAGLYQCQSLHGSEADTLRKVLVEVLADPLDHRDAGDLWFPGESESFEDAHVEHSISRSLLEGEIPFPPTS

T8: G45A
T8 construct: also called hTREM2-Dap12 chimera with G45A; not shown: Transmembrane/cytoplasmic stretch and the Dap12 portion of the chimera
T8 chain: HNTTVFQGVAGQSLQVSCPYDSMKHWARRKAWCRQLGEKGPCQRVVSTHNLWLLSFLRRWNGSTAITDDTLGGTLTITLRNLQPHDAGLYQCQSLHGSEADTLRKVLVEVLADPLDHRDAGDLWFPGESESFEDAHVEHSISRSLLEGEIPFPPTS

T9: E156A
T9 construct: also called hTREM2-Dap12 chimera with E156A; not shown: Transmembrane/cytoplasmic stretch and the Dap12 portion of the chimera
T9 chain: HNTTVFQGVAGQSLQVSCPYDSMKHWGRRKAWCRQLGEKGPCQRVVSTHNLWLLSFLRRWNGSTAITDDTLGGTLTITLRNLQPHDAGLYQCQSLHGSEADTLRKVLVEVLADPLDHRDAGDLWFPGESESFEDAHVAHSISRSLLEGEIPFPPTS

T10: H154A
T10 construct: also called hTREM2-Dap12 chimera with H154A; not shown: Transmembrane/cytoplasmic stretch and the Dap12 portion of the chimera
T10 chain: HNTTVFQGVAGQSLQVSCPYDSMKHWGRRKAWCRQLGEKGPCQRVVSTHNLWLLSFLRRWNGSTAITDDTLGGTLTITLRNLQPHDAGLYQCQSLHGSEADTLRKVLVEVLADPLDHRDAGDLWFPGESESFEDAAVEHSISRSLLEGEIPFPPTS

T11: R77A
T11 construct: also called hTREM2-Dap12 chimera with R77A; not shown: Transmembrane/cytoplasmic stretch and the Dap12 portion of the chimera
T11 chain: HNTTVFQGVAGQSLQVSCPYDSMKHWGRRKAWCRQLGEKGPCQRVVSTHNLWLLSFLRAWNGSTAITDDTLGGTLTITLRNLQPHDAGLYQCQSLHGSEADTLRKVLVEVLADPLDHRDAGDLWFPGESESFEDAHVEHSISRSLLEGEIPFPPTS


What was measured:
[1] = target: T1, human TREM2 on primary cells; experiment: FACS, primary hDC
[2] = target: T2, recombinant human TREM2-DAP12 fusion …; experiment: KD cell binding
[3] = target: T1, human TREM2 on primary cells; experiment: FACS, primary hMAC
[4] = target: T2, recombinant human TREM2-DAP12 fusion …; experiment: FACS, HEKhT2 cells
mouse TREM2 on cells [5] = target: T3, mouse TREM2 on cells; experiment: KD cell binding
mouse TREM2 on cells [6] = target: T3, mouse TREM2 on cells; experiment: FACS on thioglycollate-induced macrophages of wild-type mice (mouse TREM2 only), gated CD11b+ F4/80+
E151A [7] = target: T4, E151A; experiment: shotgun alanine scanning: immunofluorescence flow cytometry on HEK-293T cells expressing the mutant chimera; mean of duplicates, range in brackets
D152A [8] = target: T5, D152A; experiment: as above
H114A = target: T6, H114A; experiment: as above
K42A = target: T7, K42A; experiment: as above
G45A = target: T8, G45A; experiment: as above
E156A = target: T9, E156A; experiment: as above
H154A [9] = target: T10, H154A; experiment: as above
R77A = target: T11, R77A; experiment: as above
E151A [10] = target: T4, E151A; experiment: shotgun alanine scanning: immunofluorescence flow cytometry on HEK-293T cells expressing the mutant chimera
D152A [11] = target: T5, D152A; experiment: as above
H154A [12] = target: T10, H154A; experiment: as above

% Positive hDC [1] [%]	Kd [2] [nM]	% Positive hMAC [3] [%]	MFI HEKhT2 [4] [MFI]	Binder	other results
94	4.64	34	11000	8A1 (antibody, IgG2a, V domains shown, mIgG2a) VH: EVQLQQSGAELVKPGASVKISCKASGYAFSNYWMSWVKQRPGKGLEWIGQIYPGDGDTKYNGKFEGKATLTADKSSSTAYMQLSSLTSEDSAVYFCSREKGADYYGSTYSAWFSYWGQGTLVTVSA VL: DIQMTQSPASLSVSVGETVTITCRTSENVYSNLAWYQQKQGKSPQLLVYAATNLADGVPSRFSASGSATQFSLKINSLQSADFGSYYCHHFWGTPYTFGGGTKLEMN	–
–	–	–	–	2H8 (antibody, IgG1, V domains shown, mIgG1) VH: EVQLVESGGGLVQPKGSLKLSCAASGFSFNTYAMNWVRQAPGKGLEWIARIRSKSNNYATYYADSVKDRFTCSRDDSENMFYLQLSSLKTEDTAMYYCVRHGDGNLWYIDVWGTGTTVTVSS VL: NVLTQSPALMSASPGEKVTMTCSASSSVSYMYWYQQKPRSSPKPWIYLTSILASGVPARFSGSGSGTSYSLTISSMEAEDAATYYCQQWSFNPYTFGGGTKLVIK	Kd (mouse TREM2 on cells [5]): 6.86 nM
–	–	–	–	7F8 (antibody, IgG1, V domains shown, mIgG1) VH: EVQLVESGGGLVQPKGSLKLSCAASGFSFNTYAMNWVRQAPGKGLEWIARIRSKSNNYATYYADSVKDRITCSRDDSENMFYLQLSSLKTEDTAMYYCVRHGDGNLWYIDVWGTGTTVTVST VL: VLTQSPALMSASPGEKVTMTCSASSSVSYMYWYQQKPRSSPKPWIYLTSILASGVPARFSGSGSGTSYSLTINNMEAEDAATYYCQQWSFNPYTFGGGTKLVIK	Kd (mouse TREM2 on cells [5]): 1.78 nM
77	4.98	18	7300	3A2 (antibody, IgG1, V domains shown, mIgG1; variable domains built FR1-HVR1-FR2-HVR2-FR3-HVR3-FR4) VH: QVQLQQSGAELVKPGASVKMSCKTSGYPFSNFWITWVKQRPGQGLVWIGDIYPGSDNSNYNEKFKTKATLTVDTSSSTAYMHLSSLTSEDSAVYFCAREAYYTNPGFAYWGQGTLVTVST VL: DVVMTQTPLSLPVSLGDQASISCRSSQTIIHSNGNTYLEWYLRKPGQSPKLLIYKVSNRFSGVPDRFSGSGSGTDFTLKISRVEAEDLGVYYCFQGSHVPYTFGGGTELEIK	–
83.9	5.4	–	13500	6H2 (antibody, IgG2a, V domains shown, mIgG2a) VH: QVQLQESGPGLVQPSQSLSIICTVSAFSLTNYAVHWIRQSPGKGLEWLGVIWSGGSTAFNAAFISRLNISKDNSKSQVFFKMNSLQSDDTAIYYCATHYYRSTYAFSYWGQGTLVTVSA VL: DVLMTQTPLSLPVSLGDQASISCRSSQSIVHSNGNTYLEWYLQKPGQSPKLLIYKVSNRFSGVPDRFSGSGSGTDFTLKISRVEAEDLGVYYCFQGSHVPFTFGSGTKLEIK	–
96	4.24	64	11900	10A9 (antibody, IgG1, V domains shown, mIgG1) VH: QVQLQQSGAEVVKPGASVKMSCKTSGYPFSNFWITWVKQRPGQGLVWIGDIYPGSDNRNFNERFKTKATLTVDTSSSTAYMHLSSLTSEDSAVYFCAREAYYTNPGFAYWGQGTLVTVSA VL: DVVMTQTPLSLPVSLGDQASISCRSSQTIIHSNGNTYLEWYLRKPGQSPKLLIYKVSNRFCGVPDRFSGSGSGTDFTLKISRVEAEDLGVYYCFQGSHVPYTFGGGTELEIK	binding result (mouse TREM2 on cells [6]): no binding
73	0.96	26	2910	9F5 (antibody, IgG1, V domains shown, mIgG1; VH FR 169/184/202/216, HVR 60/78/97; also called mAb T2-9F5.1; 9F5 MAb) VH: QVQLQQSGPELVKPGASLKISCKASGYAFSSSWMNWVKQRPGKGLEWIGRIYPGDGDTNYNGEFRVRATLTADTSSTTAYMQLSSLTSEDSAVYFCARLLRNQPGESYAMDYWGQGASVTVSS VL: DVVMTQTPLSLPVSLGDQASISCRSSQSLVHSNGYTYLHWYLQKPGQSPKLLIYKVSNRFSGVPDRFSGSGSGTDFTLKISRVEADDLGVYFCSQSTRVPYTFGGGTKLEIK	Binding Reactivity (% WT) (E151A [7]): 4.8 % WT; Binding Reactivity (% WT) (D152A [8]): 2.7 % WT; Binding Reactivity (% WT) (H114A): 114 % WT; Binding Reactivity (% WT) (K42A): 131 % WT; Binding Reactivity (% WT) (G45A): 145 % WT; Binding Reactivity (% WT) (E156A): 17.7 % WT; Binding Reactivity (% WT) (H154A [9]): 3 % WT; Binding Reactivity (% WT) (R77A): 124 % WT; binding result (mouse TREM2 on cells [6]): no binding; binding result (E151A [10]): no binding; binding result (D152A [11]): no binding; binding result (H154A [12]): no binding
60	9.06	20	3080	9G1 (antibody, IgG1, V domains shown, mIgG1) VH: QVQLQQSGAELVKPGASVKLSCKASGYIFTTYWIHWVKQRPGRGPEWIGRIDPNNGDTNYNEKFKTKATLTVDKPSSTADMQLSSLTSEDSAVYYCVMTGTDFDYWGQGTTLTVSS VL: DVLMTQTPLSLPVSLGDQASISCRFSQSLVHSNGNTYLHWYLQKPGQSPKLLIYKVSNRFSGVPDRFSGSGSGTDFTLRISGVEAEDLGVYFCSQSTRVPPTFGGGTKLEIK	–
